pKd: −log10 of the molar value.
Test system: Rev full-length wild-type (HIV-1 (HXB3?))
Experiment: EMSA
Conditions: 10 mM HEPES pH 7.5, 0.1 M KCl (0.3 M KCl and no tRNA for SYBR Green II assay), 1 mM MgCl2, 0.5 mM EDTA, 2 mM DTT, 10% glycerol, 50 ug/ml yeast tRNA, 0.2 mg/ml …

RRE full-length 234 nt
pKd: 9.84
